This assay concerns the target T1, recombinant human MD2 (human, UniProt Q9Y6Y9 19-160).
T1 construct: myeloid differentiation factor 2 (MD2), human, recombinant; No catalogue number is printed; PDB 2E56 was used only for docking; also called rhMD2; myeloid differentiation factor 2; source: bought: R&D Systems
T1 sequence: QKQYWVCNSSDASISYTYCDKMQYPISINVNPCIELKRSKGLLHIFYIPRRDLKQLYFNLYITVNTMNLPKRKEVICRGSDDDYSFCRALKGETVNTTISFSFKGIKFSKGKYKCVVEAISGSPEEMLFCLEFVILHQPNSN
Put plainly: SPR; Biacore T200, CM5 chip, target protein amine-coupled; irisin flowed at seven concentrations, 30 μL/min, 200 s association, 200 s dissociation, 25 °C, PBS with 0.5% P20; global fit with a 1:1 Langmuir model. Conditions: both partners purified. On the technique in general: SPR reads the build-up and loss of mass on a sensor chip optically.

B1: recombinant irisin (ligand)
chain: DSPSAPVNVTVRHLKANSAVVSWDVLEDEVVIGFAISQQKKDVRMLRFIQEVNTTTRSCALWDLEEDTEYIVHVQAISIQGQSPASEPVLFKTPREAEKMASKNKDEVTMKE
modifications: Commercial recombinant protein (Phoenix Pharmaceuticals); catalogue number, host and glycosylation not stated. Limits are the conventional 112-aa mature irisin: residues 32-143 of the 212-aa FNDC5 …
With B1, the Kd stood at 1.65 nM.

Broadly, the Kd is a measure of binding affinity in units of concentration.

The values are drawn from paper PMC8699279, “Exercise-Induced Irisin Decreases Inflammation and Improves NAFLD by Competitive Binding with MD2” (Cells, 2021).
